Laboratory results reported in PMC2118910.

What was measured:
Assay in all cases: cell-cell adhesion assay
[1] = target: human CD8 alpha mutant M3 (human)
[2] = target: human CD8 alpha mutant M2 (human) (UniProt P01732)
[3] = target: human CD8 alpha mutant M8 (human) (UniProt P01732)
[4] = target: human CD8 alpha mutant M10 (human)
[5] = target: mouse CD8 alpha (Lyt-2) (mouse) (UniProt P01731)
[6] = target: human CD8 alpha mutant M7 (human)
[7] = target: human CD8 alpha mutant M6 (human)
[8] = target: human CD8 alpha mutant M9 (human) (UniProt P01732)
[9] = target: human CD8 alpha mutant M4 (human) (UniProt P01732)
[10] = target: human CD8 alpha mutant M1 (human)
[11] = target: human CD8 alpha mutant M5 (human) (UniProt P01732)

Chain of UniProt P01731 (P01731 28-247): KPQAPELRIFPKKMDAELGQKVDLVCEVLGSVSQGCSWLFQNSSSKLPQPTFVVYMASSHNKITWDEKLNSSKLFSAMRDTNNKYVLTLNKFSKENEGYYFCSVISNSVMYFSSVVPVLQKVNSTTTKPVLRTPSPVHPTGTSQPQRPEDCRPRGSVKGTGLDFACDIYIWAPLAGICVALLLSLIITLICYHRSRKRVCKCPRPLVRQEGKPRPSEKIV

Substance: HLA class I on the human B lymphoblastoid cell line UC
- percent binding relative to wild type [1]: 13.5%
- percent binding relative to wild type [2]: 1.7%
- percent binding relative to wild type [3]: > 80%
- percent binding relative to wild type [4]: 42.6%
- percent binding relative to wild type [5]: -0.6 to 5.8%
- percent binding relative to wild type [6]: 31.3%
- percent binding relative to wild type [7]: 49.1%
- percent binding relative to wild type [8]: 56.9%
- percent binding relative to wild type [9]: > 80%
- percent binding relative to wild type [10]: 15.7%
- percent binding relative to wild type [11]: 11%
